Experiments:
bovine serum albumin = bovine serum albumin (Bos taurus, UniProt P02769 P02769:25-607); assay: pulldown; negative control; negligible non-specific binding in Tris with Mg2+; high non-specific binding with Zn2+, especially without NaCl; settings: tags: Sigma-Aldrich; label: 5'-biotin
Description: A positive pressure manifold (commercially available from Waters Technologies Corporation, Milford, Mass.) was utilized to drive flow through the filter plate. The amount of aptamer immobilized was determined by abosorbance at 260 nm using a DS-11 spectrophotometer (commercially available from DeNovix Inc., Wilmington, Del.). This non-covalently immobilized aptamer affinity resin was used to perform the affinity capture of 100 μg human IgG (IgG from human serum, commercially available from Sigma-Aldrich (now MilliporeSigma), St. Louis, Mo.) contained within 200 μL of several different binding buffers (specified below). After 1 hour of mixing, the resin was washed with two repeated 200 μL volumes to remove any unbound protein. Combined hIgG flow-through and washing fractions were saved to determine the amount of hIgG breakthrough. […] The eluate was saved for hIgG recovery measurements using a fluorescence plate reader (Ex. 280 nm, Em. 370 nm; Gemini™ XPS plate reader, commercially available from Molecular Devices, San Jose, Calif.).
The presence of divalent cations in the binding buffer has the potential to facilitate the activation of the aptamer affinity motif, yet it could also instigate non-specific binding. […] After binding and washing steps, captured proteins were eluted with elution buffer and protein recovery in each eluate was measured using a fluorescence plate reader.

[1] = target: NISTmAb humanized IgG1 (Fc domain) (UniProt P01857-1 P01857-1:99-330); assay: pulldown; from rat plasma, 12.5 ug aptamer, about 85% of 100 ug recovered, purity 10.6% to 72.4%; bound mAb to plasma protein ratio near 7:3; retained in 5 mM CaCl2 Tris; settings: chain copies: 2; label: 5'-biotin
Description: 280 nm, Em. 370 nm) and re-calculated according to the chromatographic purity assessment. […] After purification, about 85% of the spiked NIST mAb was recovered with purity increasing from 10.6% to 72.4%.
The small portion of impurity in the purified NIST mAb eluate was determined to be the non-specific binding of rat plasma endogenous proteins to the aptamer. The competition in binding between NIST mAb and plasma protein was investigated by loading 20 μL of rat plasma containing 50 μg of NIST mAb onto an increasing amount of immobilized aptamer (5 μg, 12.5 μg, 25 μg). The result of this experiment is summarized in FIG. 8D-E. From which, it is possible to observe that the binding ratio of NIST mAb to plasma protein is close to 7:3 (from UV measurement) for the current experimental approach.
To test out this optional protocol step, 20 μL of plasma and 25 μg of NIST mAb were diluted with binding buffer to 200 μL then loaded onto 40 μL of streptavidin resin wherein 5 μg of aptamer was non-covalently immobilized. […] Herein, the second washing and elution fractions were collected and analyzed by LC-UV analysis. […]

bovine serum albumin, sequence (P02769 25-607, one chain of several): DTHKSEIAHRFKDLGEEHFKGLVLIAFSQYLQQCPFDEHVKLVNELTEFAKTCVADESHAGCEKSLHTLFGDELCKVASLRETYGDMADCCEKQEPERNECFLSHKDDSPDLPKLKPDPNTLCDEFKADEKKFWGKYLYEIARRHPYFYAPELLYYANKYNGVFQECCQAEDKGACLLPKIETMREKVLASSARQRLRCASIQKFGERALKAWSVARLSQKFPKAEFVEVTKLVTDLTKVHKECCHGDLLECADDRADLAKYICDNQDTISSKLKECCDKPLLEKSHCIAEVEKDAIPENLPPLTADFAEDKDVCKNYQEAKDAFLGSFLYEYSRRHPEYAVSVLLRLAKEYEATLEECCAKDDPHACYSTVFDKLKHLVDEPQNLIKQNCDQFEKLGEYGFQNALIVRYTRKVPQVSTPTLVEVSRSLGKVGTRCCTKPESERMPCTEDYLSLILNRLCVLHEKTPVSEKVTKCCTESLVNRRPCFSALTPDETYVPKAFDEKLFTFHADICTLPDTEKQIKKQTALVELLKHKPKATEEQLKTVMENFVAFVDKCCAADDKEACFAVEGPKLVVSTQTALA

B1: anti-human Fc 23-nt aptamer SEQ ID NO 1 (mixed)
RNA: GGAGGUGCUCCGAAAGGAACUCC
modifications: 2'-F U at 6, 9, 21; 2'-F C at 20; ribonucleotides at A3, G4, G5, G7, G16, G17; all other positions deoxyribonucleotides
B1: no binding (bovine serum albumin); binds [1].

Reference: patent US20200407723, “APTAMER BASED AFFINITY CAPTURE METHODS FOR THE SELECTIVE ENRICHMENT OF HUMAN IMMUNOGLOBULIN FC DOMAINS” (Waters Technologies Corporation, published 2020)
